Measured values published in US20230203146A1 (Boehringer Ingelheim, published 2023).
Like-named read-outs stand apart in the source and are kept apart here.

T1: FLAG-tagged cynomolgus Ang2 (cynomolgus, UniProt O15123 19-496 (human entry), limits assumed)
T1 construct: N-terminally FLAG-tagged, conditioned medium of HEK293T cells; also called cAng2; FLAG-cAng2
T1 chain: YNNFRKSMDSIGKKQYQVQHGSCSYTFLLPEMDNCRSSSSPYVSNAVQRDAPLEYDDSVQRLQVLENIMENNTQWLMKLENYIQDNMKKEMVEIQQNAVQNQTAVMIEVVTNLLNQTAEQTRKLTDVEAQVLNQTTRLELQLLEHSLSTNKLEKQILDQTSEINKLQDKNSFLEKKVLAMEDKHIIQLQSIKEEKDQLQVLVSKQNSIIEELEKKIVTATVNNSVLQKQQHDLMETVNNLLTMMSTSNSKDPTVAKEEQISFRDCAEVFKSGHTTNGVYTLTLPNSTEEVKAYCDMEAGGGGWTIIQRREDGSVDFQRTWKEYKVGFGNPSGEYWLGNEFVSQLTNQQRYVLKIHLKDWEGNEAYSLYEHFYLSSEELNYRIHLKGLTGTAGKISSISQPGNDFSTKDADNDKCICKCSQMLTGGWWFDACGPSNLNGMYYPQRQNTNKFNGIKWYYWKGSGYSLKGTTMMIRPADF

T2: FLAG-tagged mouse Ang2 (mouse, UniProt O35608 19-496)
T2 construct: N-terminally FLAG-tagged, conditioned medium of HEK293T cells; also called mAng2; FLAG-mAng2
T2 sequence: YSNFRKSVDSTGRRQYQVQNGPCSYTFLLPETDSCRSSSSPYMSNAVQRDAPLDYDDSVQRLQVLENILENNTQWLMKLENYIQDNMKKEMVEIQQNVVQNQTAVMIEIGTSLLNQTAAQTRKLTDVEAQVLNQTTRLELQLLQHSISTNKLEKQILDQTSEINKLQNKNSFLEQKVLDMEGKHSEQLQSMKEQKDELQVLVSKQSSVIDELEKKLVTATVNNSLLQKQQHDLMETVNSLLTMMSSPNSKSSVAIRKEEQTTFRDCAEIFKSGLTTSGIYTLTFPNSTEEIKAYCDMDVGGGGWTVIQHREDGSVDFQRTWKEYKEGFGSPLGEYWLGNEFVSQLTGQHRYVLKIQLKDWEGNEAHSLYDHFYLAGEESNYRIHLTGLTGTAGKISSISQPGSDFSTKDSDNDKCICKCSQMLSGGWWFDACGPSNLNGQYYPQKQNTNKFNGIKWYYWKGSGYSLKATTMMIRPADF


Key:
[1] = target: T1, FLAG-tagged cynomolgus Ang2; assay: competition ELISA: FLAG-cAng2 binding to coated cTie2-Fc
Description: (§1) In brief, 2 μg/mL of recombinant mouse Tie2-Fc or cyno Tie2-Fc is coated overnight at 4° C. in a 96-well MaxiSorp plate (Nunc, Wiesbaden, Germany). Coated wells are blocked with a 1% casein solution.

FLAG-tagged mouse Ang2 [2] = target: T2, FLAG-tagged mouse Ang2; assay: competition ELISA: FLAG-mAng2 binding to coated mTie2-Fc
Description: as §1

FLAG-tagged mouse Ang2 [3] = target: T2, FLAG-tagged mouse Ang2; assay: as above; remark: listed apart in the source
Description: as §1

[4] = target: T1, FLAG-tagged cynomolgus Ang2; assay: competition ELISA: FLAG-cAng2 binding to coated cTie2-Fc
Description: as §1

FLAG-tagged mouse Ang2 [5] = target: T2, FLAG-tagged mouse Ang2; assay: competition ELISA: FLAG-mAng2 binding to coated mTie2-Fc; remark: listed apart in the source
Description: as §1

[6] = target: T1, FLAG-tagged cynomolgus Ang2; assay: competition ELISA: FLAG-cAng2 binding to coated cTie2-Fc
Description: as §1

Binder | IC50 [1] [nM] | IC50 (FLAG-tagged mouse Ang2 [2]) [nM] | IC50 (FLAG-tagged mouse Ang2 [3]) [nM] | IC50 [4] [nM] | IC50 (FLAG-tagged mouse Ang2 [5]) [nM] | IC50 [6] [nM]
VHH 00932 (VHH, not shown: small tags and cut ends, Cycle 3 variant of 28D10 on the 00908 backbone) VHH: EVQLVESGGGLVQPGGSLRLSCAVSGITLDDYAIGWFRQAPGKEREGVSSIRDNGGSTYYADSVKGRFTISSDNSKNTVYLQMNSLRPEDTAVYYCAAVPAGRLRYGEQWYPIYEYDAWGQGTLVTVSS | 0.054 | 0.038 | – | – | – | –
VHH 37F02 (VHH, not shown: small tags and cut ends, Parental llama VHH; also called 037F02) VHH: EVQLVESGGGLVQPGGSLRLSCAASGFALDYYAIGWFRQAPGKEREGVSCISSSDGITYYVDSVKGRFTISRDNAKNTVYLQMNSLKPEDTAVYYCATDSGGYIDYDCMGLGYDYWGQGTQVTVSS | – | – | 0.11 | 0.15 | 0.11 | 0.15
VHH 00931 (VHH, not shown: small tags and cut ends) VHH: EVQLVESGGGLVQPGGSLRLSCAASGFALDYYAIGWFRQAPGKEREGVSCISSSGGITYYADSVKGRFTISRDNSKNTVYLQMNSLRPEDTAVYYCATESGGYIDYDCSGLGYDYWGQGTLVTVSS | – | – | – | – | 0.15 | 0.29
VHH 00929 (VHH, not shown: small tags and cut ends) VHH: EVQLVESGGGLVQPGGSLRLSCAASGFALDYYAIGWFRQAPGKEREGVSCISSSGGITYYADSVKGRFTISRDNSKNTVYLQMNSLRPEDTAVYYCATESGGYIDYDCQGLGYDYWGQGTLVTVSS | – | – | – | – | 0.15 | 0.25
VHH 00930 (VHH, not shown: small tags and cut ends) VHH: EVQLVESGGGLVQPGGSLRLSCAASGFALDYYAIGWFRQAPGKEREGVSCISSSGGITYYADSVKGRFTISRDNSKNTVYLQMNSLRPEDTAVYYCATESGGYIDYDCRGLGYDYWGQGTLVTVSS | – | – | – | – | 0.17 | 0.31

The next lines start with the values.

IC50 [1] [nM] | IC50 (FLAG-tagged mouse Ang2 [2]) [nM] | IC50 (FLAG-tagged mouse Ang2 [3]) [nM] | IC50 [4] [nM] | IC50 (FLAG-tagged mouse Ang2 [5]) [nM] | IC50 [6] [nM] | Binder
0.071 | 0.062 | – | – | – | – | VHH 00933 (VHH, not shown: small tags and cut ends, Cycle 3 variant of 28D10 on the 00908 backbone) VHH: EVQLVESGGGLVQPGGSLRLSCAASGITLDDYAIGWFRQAPGKEREGVSAIRDNGGSTYYADSVKGRFTISSDNSKNTVYLQMNSLRPEDTAVYYCAAVPAGRLRYGEQWYPIYEYDAWGQGTLVTVSS
0.069 | 0.078 | – | – | – | – | VHH 00935 (VHH, not shown: small tags and cut ends, Cycle 3 variant of 28D10 on the 00908 backbone) VHH: EVQLVESGGGLVQPGGSLRLSCAASGITLDDYAIGWFRQAPGKEREGVSAIRSSGGSTYYADSVKGRFTISSDNSKNTVYLQMNSLRPEDTAVYYCAAVPAGRLRYGEQWYPIYEYDAWGQGTLVTVSS
